Assay results taken from US20110098227.

System: NusA-Notch fusion protein (NusA fused to mouse Notch-1 N1703-D1860 with C-terminal Flag and 8His tags), uncleaved

## solubilized gamma-secretase from HeLa cells
  apparent Km for hydrolysis (Notch cleavage ELISA): about 0.7 µM
  specific cleavage at the 1743-1744 junction: γ-secretase activity from HeLa cells specifically cleaves the Notch protein at the 1743-1744 junction
